Laboratory results from paper PMC4163024 (Structure (London, England : 1993), 2014).
Numbering of substitutions follows the chain as printed.

Experiments:
[1] = target: T1, recombinant DcR3-Ig (human, UniProt O95407 30-300); assay: SPR
T1 sequence (looked up): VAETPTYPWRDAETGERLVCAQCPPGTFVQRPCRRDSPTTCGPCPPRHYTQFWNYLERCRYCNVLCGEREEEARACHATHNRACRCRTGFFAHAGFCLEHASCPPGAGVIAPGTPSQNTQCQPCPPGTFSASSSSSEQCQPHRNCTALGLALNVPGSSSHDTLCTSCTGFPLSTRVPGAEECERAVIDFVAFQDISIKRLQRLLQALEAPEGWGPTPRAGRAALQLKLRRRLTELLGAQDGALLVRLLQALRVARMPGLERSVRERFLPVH

[2] = target: recombinant LTβR-Ig (UniProt P36941 31-227); assay: SPR
[3] = target: the molecule itself; assay: crystal structure

Sequence of recombinant LTβR-Ig (P36941 31-227): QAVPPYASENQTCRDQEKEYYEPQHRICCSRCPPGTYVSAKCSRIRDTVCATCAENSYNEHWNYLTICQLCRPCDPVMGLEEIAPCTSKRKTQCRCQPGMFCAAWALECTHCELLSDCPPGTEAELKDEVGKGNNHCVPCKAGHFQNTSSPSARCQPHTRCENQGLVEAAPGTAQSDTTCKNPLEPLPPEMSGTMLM

B1: Soluble LIGHT (residues L83-V240), wild type (ligand, human, UniProt O43557 83-240, looked up)
chain: LIQERRSHEVNPAAHLTGANSSLTGSGGPLLWETQLGLAFLRGLSYHDGALVVTKAGYYYIYSKVQLGGVGCPLGLASTITHGLYKRTPRYPEELELLVSQQSPCGRATSSSRVWWDSSFLGGVVHLEAGEKVVVRVLDERLVRLRDGTRSYFGAFMV
[1]
  Kd: 0.0167 ± 0.0003 µM
[2]
  Kd: 0.0112 ± 0.0006 µM
[3]
  stoichiometry N: 3

B2: LIGHT mutant 1 (GH loop 226-231 replaced by the TL1A loop) (ligand, human)
chain: B1 chain with R144D, L145Y, R146T, D147K, G148E, T149D
[1]
  Kd: 0.036 ± 0.0018 µM
[2]
  Kd: 0.021 ± 0.0033 µM

B3: LIGHT mutant 2 (EF loop 195-198 replaced by the TL1A loop) (ligand, human)
chain: B1 chain with R113S, V114N, W116F
[1]
  Kd: 0.153 ± 0.054 µM
[2]
  Kd: 0.0172 ± 0.014 µM
